Source: patent US20180298097A1

Columns and labels:
CHO-huTIM3 = CHO-huTIM3 (UniProt Q8TDQ0); assay: FACS binding, CHO-huTIM3 transfectant; isotype control
mouse TIM3 (mouse) [1] = target: mouse TIM3 (mouse) (UniProt Q8VIM0); assay: binding to activated mouse T cells; method not described
mouse TIM3 (mouse) [2] = target: mouse TIM3 (mouse) (UniProt Q8VIM0); assay: binding to activated mouse T cells, compared with TIM3.18 binding to human TIM-3

Chain of mouse TIM3 (mouse) (Q8VIM0 20-281): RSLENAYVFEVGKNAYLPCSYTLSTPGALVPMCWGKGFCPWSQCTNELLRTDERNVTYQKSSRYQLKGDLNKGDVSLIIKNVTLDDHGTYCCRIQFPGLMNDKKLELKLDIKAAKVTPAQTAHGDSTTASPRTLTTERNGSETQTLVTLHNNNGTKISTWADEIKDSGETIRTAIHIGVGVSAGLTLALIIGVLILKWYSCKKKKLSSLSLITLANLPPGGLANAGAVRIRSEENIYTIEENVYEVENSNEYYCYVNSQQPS

| EC50 (CHO-huTIM3) | EC50 (mouse TIM3 (mouse) [1]) | fold weaker EC50 than TIM3.18 on human TIM-3 (mouse TIM3 (mouse) [2]) | Substance |
| --- | --- | --- | --- |
| 42.3 mg/mL | – | – | hIgG2 |
| 29.3 mg/mL | – | – | hIgG4 |
| – | 1.7 nM | 17 fold | rat anti-mouse TIM-3 antibody RMT3-23 (Bio-X-Cell) |
